Experimental data from US20060166191A1.

Biological target: wild-type Gag expressed from the full-length proviral construct pNL4-3 (HIV-1) (UniProt P12493)
Test: cell-based or functional assay

Question: For “AP3D-5′, AP3 δ subunit residues 1-742 (from UniProt O14617 1-742)”, which cells with particle budding among 100 consecutive 293T cells (thin-section electron microscopy), NL4-3 with AP3D-5′ is on record?
Answer: 0 cells of 100
